“Also recorded” adds a separate entry of the source.
Tests used:
human OPN protein = target: T1, human OPN protein (Homo sapiens, UniProt P10451); experiment: Western blot of 1A12 against human OPN protein; type: binding
T1 construct: made in house; host or cells: Pichia (yeast), culture supernatant
Method: 100 ug human OPN and an equal volume of Freund's adjuvant were emulsified, and injected intraperitoneally into BALB/C mice. Boost was given every two weeks at the same dose. […] The mouse spleen lymphocytes were fused with NS-1 cells using the classic PEG method. 96-well plate coated with 10 μg/ml human OPN was used for repeated screening by ELISA method to obtain hybridoma cell line 1A12 which was capable of stably expressing anti-human OPN antibody. The strain of 1A12 was amplified, and administrated to BALB/C mice in 5×10^6 cells/mouse (i.p.). The ascites was collected from the 10th day after the injection. The anti-human OPN monoclonal antibody was purified by affinity chromatography using protein A column.

MDA-MB-435s cells [1] = experiment: Primary breast tumor growth in nude mice (MDA-MB-435s orthotopic); type: in vivo; conditions: 5 mg/kg, 2 times per week; by the 10th week; P<0.05
Method: The MDA-MB-435s cells were detached and re-suspended in serum-free DMEM to the concentration of 5×10^7 cells/ml. Each group of 10 female 4 to 6-week old nude mice were anaesthetized by injection of sodium pentobarbital (ip.). Under sterile condition, the skin was sterilized, and a small incision (0.5-mm) was made in the skin over the lateral thorax below the right limb. The mammary fat pads (mfp) were exposed and MDA-MB-435s cells (5×10^6 in 100 μl DMEM) were orthotopically injected into the mfps. The cut was then closed. The animals were randomly divided into four groups, and each accepted the treatment as specified below from the day after the tumor cell inoculation:
1A12: 5 mg/kg, 2 times per week;
Control antibody: 5 mg/kg, 2 times per week.
The tumor formation in nude mice was observed once a week, the maxima of the diameter (length) and a perpendicular dimension of the tumor (width) were measured using a caliper, and the volume was calculated as follows: Volume=0.52×length×width^2. The changed tumor volumes were plotted versus the time into a tumor growth curve.
The tumor size was plotted versus time into a tumor growth curve. […]

MDA-MB-435s cells [2] = experiment: Clone formation on soft agar assay; type: cell-based; conditions: antibody 25 μg/ml every other day; 3 weeks
Method: The assay of clone formation on soft agar was conducted using a double-layer soft agar system. 2.5% melted agar was mixed the DMEM medium pre-warmed at 37° C. to formulate a 0.5% agar solution, which was then diluted with DMEM to a 0.3% agar solution. To each well of a 24-well plate was added 500 μl of a 0.5% agar solution, which was allowed to gel at 4° C., and then kept warm in an incubator at 37°C. The MDA-MB-435s cells were detached using 0.2% .EDTA and suspended in the 0.3% agar solution at the concentration of 5×10^3 cells/ml. 500 μl of the cell suspension was added each well and left to gel. From the second day, the cells were respectively treated with 1A12, c1A12, h1A12 or the irrelevant antibody (23C3D3) (25 μg/ml) every other day. After 3 weeks, the colony formation ability was evaluated by measuring the size of colonies containing more than 10 cells.

MDA-MB-435s cells [3] = experiment: Scratch wound healing assay; type: cell-based; conditions: antibody 25 μg/ml; 24 hours
Method: The MDA-MB-435s cells cultured in a 12-wells plate to almost confluent (90%) washed with PBS and starved overnight with serum-free DMEM. Scratches were made on the cell monolayer using a 10 μl pipette, and PBS was added to wash away the floating cells. The test groups were treated with 25 μg/ml of the murine anti-human OPN antibody 1A12, the human-murine chimeric antibody c1A12 and the humanized antibody h1A12, and the control group, 25 μg/ml of the irrelevant antibody. The cells were incubated in an incubator at 37° C. for 24 hours. The result was expressed as the number of the cells that cross the base line.

rabbit cornea = experiment: OPN-induced rabbit corneal neovascularization; type: in vivo; conditions: pellet with 200 ng hOPN and 1 μg antibody
Method: The Hydron powder was dissolved in anhydrous ethanol under sterile condition to the final concentration of 12% (w/v), and dissolved with agitation under 37° C. to formulate the 12% Hydron cast solution, which was then stored at room temperature. A quota of sucralfate powder formulated in sterile Milli Q water under sterile conditions as a suspension with the final concentration of 100 μg/μl, which was stored at 4° C., and vortexed to homogeneous intermediately before use. Sustained-release pellets were prepared to each containing 200 ng hOPN and 50 μg sucralfate and, for the antibody groups, 1 μg anti-OPN antibodies, and for the control, the irrelevant antibody. The 12% Flydron east solution and the hOPN-sucralfate-PBS blend were mixed as the ratio of 1:1 (volume ratio), vortexed for 1 min. Then 5 μl mixed Hydron-sucralfate-hOPN solution was added onto a sterilized Parafilm surface, dried for about 30 min on a super-clean bench for a complete polymerization. The polymers were then shaped into uniform circular granules with a 2 mm diameter using an eye tweezers. The granules were stored at −20′C. Animals were grouped in the same way as in Experiment II-3, each group consisting of four eyes.
The rabbit was anesthetized at ear edge vein with 3% sodium pentobarbital (1 ml/kg body weight) and on both corneal surfaces with 1% tetracaine. The thickness of the cornea was measured using an ultrasonic cornea thickness gauge. A 3 mm half-depth incision was made at the center of the cornea using an ophthalmic knife, and an undermining tunnel toward the 12 o'clock or 3 o'clock position on the corneoscleral margin was made using a 2 mm-wide scleral tunnel knife, whereby the tunnel lied within the corneal layer with the top of the tunnel about 1 mm distant from the limbus corneae. The Hydron/sucralfate sustained-release pellet was implanted into the top of tunnel using micro-tweezers. The cuts were treated with chlortetracycline eye ointment after the surgery. From Day 1 after the surgery, the double-blinded observer observed the rabbit conical neovascularization under the slit-lamp each day, until the Day 10, The length (VL) and the vascular clock angle (CN, 30°=1CN) of the longest vessel were measured, and the area of neovascularization was calculated according to the following formula:
Area (mm^2)=0.2×π×VL (mm)×CN (mm)

[4] = relative to irrelevant antibody group, P<0,01

T1 sequence (P10451 17-314): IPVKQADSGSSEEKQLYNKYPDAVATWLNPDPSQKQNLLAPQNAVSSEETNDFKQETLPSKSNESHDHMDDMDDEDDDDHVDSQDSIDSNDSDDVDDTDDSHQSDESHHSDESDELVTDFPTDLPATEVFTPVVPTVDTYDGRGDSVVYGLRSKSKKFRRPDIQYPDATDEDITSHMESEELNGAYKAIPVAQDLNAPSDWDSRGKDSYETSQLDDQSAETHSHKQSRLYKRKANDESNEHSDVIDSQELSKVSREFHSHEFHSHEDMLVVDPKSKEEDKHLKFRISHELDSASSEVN

binding to the human OPN protein (human OPN protein): specifically bound
B1: 1A12: murine anti-hOPN mAb; VH SEQ ID NO: 4, VL SEQ ID NO: 6; from hybridoma 1A12 (antibody, V domains shown)
VH: QVQLEQSGPELVKPGASVKMSCKSSGYTFTTYVMHWVKQKPGQGLEWIGYINPYNDGSKYNEKFKGKATLTSDKSSNTAYMELSSLTSEDSAVYYCASHYGGSPAYWGQGTLVTVSA
VL: DILMTQTPLSLPVSLGDQASISCRSSQSLVHSNGNTYLHWYLQKPGQSPKLLIYKVSNRFSGVPDRFSGSGSGTDFTLKISRVEAEDLGVYFCSQSTHVPWTFGGGTKLEIKR
modifications: amino acid sequence of the heavy chain variable region in 1A12; amino acid sequence of the light chain variable region in 1A12
notes: murine anti-hOPN mAb; from hybridoma 1A12
tumor size versus irrelevant antibody treated group (MDA-MB-435s cells [1]): significantly smaller; also recorded: effectively inhibit tumor development | inhibition of clone size formed by MDA-MB-435s cells on soft agar (MDA-MB-435s cells [2]): could inhibit the clone size | inhibition of the reparation of the scratches and damages (MDA-MB-435s cells [3]): effectively inhibit | corneal neovascularization relative to the OPN group (rabbit cornea): significantly reduced | area of neovascularization (rabbit cornea; [4]): significantly shrunk | length of the newly generated blood vessels (rabbit cornea; [4]): significantly reduced

Source: patent publication US20100151486A1, “OSTEOPONTIN FUNCTIONAL EPITOPES, MONOCLONAL ANTIBODIES AGAINST THE EPITOPES AND USES THEREOF” (SHANGHAI NATIONAL ENGINEERING RESEARCH CENTER OF A, priority 2007, published 2010)
